Reference: patent US20250011430A1
Residue numbers refer to the chain shown, from its start.

T1: B7H3 on cells (B7H3 on HEK293 cells; B7H3 expressed from plasmid on HEK-293T and QT6 cells) (human) (UniProt Q5ZPR3)
T1 sequence (looked up): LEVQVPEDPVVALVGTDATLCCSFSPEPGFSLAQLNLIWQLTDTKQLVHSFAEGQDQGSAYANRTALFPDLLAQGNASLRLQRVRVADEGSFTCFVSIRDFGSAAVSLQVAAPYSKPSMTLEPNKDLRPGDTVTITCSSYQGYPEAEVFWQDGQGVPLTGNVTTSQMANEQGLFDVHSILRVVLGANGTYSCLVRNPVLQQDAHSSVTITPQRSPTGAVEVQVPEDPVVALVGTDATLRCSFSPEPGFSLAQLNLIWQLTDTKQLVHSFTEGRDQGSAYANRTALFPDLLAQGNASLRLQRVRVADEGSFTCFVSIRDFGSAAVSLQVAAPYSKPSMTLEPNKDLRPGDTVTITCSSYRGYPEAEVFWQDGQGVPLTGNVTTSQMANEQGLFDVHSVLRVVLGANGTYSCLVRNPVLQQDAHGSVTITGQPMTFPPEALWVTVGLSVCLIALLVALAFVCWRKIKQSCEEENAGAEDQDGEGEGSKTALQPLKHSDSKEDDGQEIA

B1: huM30 (antibody, from another filing, V domains shown)
VH: QVQLVQSGAEVKKPGSSVKVSCKASGYTFTNYVMHWVRQAPGQGLEWMGYINPYNDDVKYNEKFKGRVTITADESTSTAYMELSSLRSEDTAVYYCARWGYYGSPLYYFDYWGQGTLVTVSS
VL: EIVLTQSPATLSLSPGERATLSCRASSRLIYMHWYQQKPGQAPRPLIYATSNLASGIPARFSGSGSGTDFTLTISSLEPEDFAVYYCQQWNSNPPTFGQGTKVEIK
B2: humanized 6F7 with light chain variable region LV1 (antibody, V domains shown)
VH: EVQLVESGGGLVQPGGSLRLSCAASGFTFTDYYMSWVRQAPGKGLEWVAFIRNKANGYTTEYSASVKGRFTISRDDSKNSLYLQMNSLRAEDTAVYYCARDSHYRPFAYWGQGTLVTVSS
VL: DIVMTQSPLSLPVTPGEPASISCKSSQSLLNSGNQNNYLTWYLQKPGQSPQLLIYLASTRDSGVPDRFSGSGSGTDFTLKISRVEAEDVGVYYCQNDYTYPLTFGGGTKVEIKR
B3: humanized 6F7 with light chain variable region LV2 (antibody, V domains shown)
VH: B2 VH
VL: DIVMTQSPDSLAVSLGERATINCKSSQSLLNSGNQNNYLTWYQQKPGQPPKLLIYLASTRDSGVPDRFSGSGSGTDFTLTISSLQAEDVAVYYCQNDYTYPLTFGGGTKVEIKR
B4: humanized 26B6 (antibody, V domains shown)
VH: EVQLVQSGAEVKKPGASVKVSCKASGYTFTEYTMHWVRQAPGQGLEWIGGINPNTGGTTYNQKFNGRVTMTRDTSISTAYMELSSLRSEDTAVYYCTRPYRDDGGFHWYFDVWGQGTLVTVSS
VL: EIVLTQSPATLSLSPGERATLSCSASSSVSYMQWYQQKPGLAPRLLIYDTSKLTSGIPDRFSGSGSGTDFTLTISRLEPEDFAVYYCQQWSSNPLTFGGGTKVEIKR
B5: anti-B7H3 antibody 2B8 (antibody, V domains shown)
VH: QVQLQQSGPELVRPGVSVKISCKVSGYTFTDGAMHWVKRSHAKSLEWIGIINTNSGNTNYNQKFQGKATMTVDKSSSTAYMELARLTSEDSAIYYCARGVFYYGYGAWFAYWGQGTLVTVSA
VL: DVQITQSPSYLTASPGETIIINCRASKTISNYLAWYQEKPGKTNKLLIYSGSTLQSGIPSRFSGSGSDTDFTLTISSLEPEDFAMYYCQQHHEYPLTFGAGTKLELKR
B6: anti-B7H3 antibody 23H1 (antibody, V domains shown)
VH: EVKLVESGGGLVQPGGSLRLSCATSGFTFTDYYMSWVRQPPGKALEWLGFIRNKVNDYTTEYSVSVKGRFTISRDNSQTILYLQMNTLRAEDSATYYCARDSPYRPFAYWGQGTLVTVSA
VL: DIVMTQSPSSLTVTAGENVTMSCKSSQTLLNNGNQKNFLTWYQQKPGQPPKLLIYLASTRESGVPDRFTGSGSGTDFTLTISSVQAEDLAVYYCQNDYTYPLTFGAGTKLELKR
B7: anti-B7H3 antibody 6F7 (antibody, V domains shown)
VH: B6 VH with V55A, D57G, V64A, R74S, N76D, T79S, P103H
VL: B6 VL with V3Q, N18K, T28S, N32S, K36N, F38Y, E61D
B8: anti-B7H3 antibody 26B6 (antibody, V domains shown)
VH: EVQLQQSGPELVKPGASVKISCKTSGYAFTEYTMHWVKQSQGKSLEWIGGINPNTGGTTYNQKFNGKATLTVDRSSSTAYMELRSLTSEDSAVYYCTRPYRDDGGFHWYFDVWGAGTAVTVSS
VL: QIVLTQSPAVMSTSPGEKVTMTCSASSSVSYMQWYQQKSGTSPKRWIYDTSKLTSGVPARFSGSGSGTSYSLTISSMEAEDAATYYCQQWSSNPLTFGAGTKLELKR

What follows are binders tested against human B7H3 ECD-His (human) (UniProt Q5ZPR3) (assay: ForteBio BLI).

Binder	Kd
B1	0.277 nM
B2	37 nM
B3	14.2 nM
B4	0.753 nM

The binders below were run against T1, B7H3 on cells (B7H3 on HEK293 cells; B7H3 expressed from plasmid on HEK-293T and QT6 cells) (human) (assay: flow cytometry on HEK293 cells).

Binder	EC50
B1	0.0974 µg/mL

What follows are binders tested against human B7H3 ECD-His (human) (UniProt Q5ZPR3) (assay: ForteBio BLI, antibody on AHQ sensor, 60 nM antigen, 1:1 model).

Binder	Kd
B1	0.346 nM
B5	0.323 nM
B6	0.685 nM
B7	0.537 nM
B8	0.435 nM
